B1: Axin interactor, dorsalization-associated protein (Mus musculus), Q8C4Q6-1 (parent)
chain: MSEVTRSLLQRWGASLRRGADFDSWGQLVEAIDEYQILARHLQKEAQAQHNNSEFTEEQKKTIGKIATCLELRSAALQSTQSQEEFKLEDLKKLEPILKNILTYNKEFPFDVQPIPLRRILAPGEEENLEFEEDEEGGAGAGPPDSFSARVPGTLLPRLPSEPGMTLLTIRIEKIGLKDAGQCIDPYITVSVKDLNGIDLTPVQDTPVASRKEDTYVHFNVDIELQKHVERLTKGAAIFFEFKHYKPKKRFTSTKCFAFMEMDEIKPGPIVIELYKKPTDFKRKKLQLLTKKPLYLHLHQSLHKE

Variants of: B1
Conditions: with Axin1, O35625-2
Chain of Axin1, O35625-2 (O35625 other isoform, or with tags, fused parts or gaps): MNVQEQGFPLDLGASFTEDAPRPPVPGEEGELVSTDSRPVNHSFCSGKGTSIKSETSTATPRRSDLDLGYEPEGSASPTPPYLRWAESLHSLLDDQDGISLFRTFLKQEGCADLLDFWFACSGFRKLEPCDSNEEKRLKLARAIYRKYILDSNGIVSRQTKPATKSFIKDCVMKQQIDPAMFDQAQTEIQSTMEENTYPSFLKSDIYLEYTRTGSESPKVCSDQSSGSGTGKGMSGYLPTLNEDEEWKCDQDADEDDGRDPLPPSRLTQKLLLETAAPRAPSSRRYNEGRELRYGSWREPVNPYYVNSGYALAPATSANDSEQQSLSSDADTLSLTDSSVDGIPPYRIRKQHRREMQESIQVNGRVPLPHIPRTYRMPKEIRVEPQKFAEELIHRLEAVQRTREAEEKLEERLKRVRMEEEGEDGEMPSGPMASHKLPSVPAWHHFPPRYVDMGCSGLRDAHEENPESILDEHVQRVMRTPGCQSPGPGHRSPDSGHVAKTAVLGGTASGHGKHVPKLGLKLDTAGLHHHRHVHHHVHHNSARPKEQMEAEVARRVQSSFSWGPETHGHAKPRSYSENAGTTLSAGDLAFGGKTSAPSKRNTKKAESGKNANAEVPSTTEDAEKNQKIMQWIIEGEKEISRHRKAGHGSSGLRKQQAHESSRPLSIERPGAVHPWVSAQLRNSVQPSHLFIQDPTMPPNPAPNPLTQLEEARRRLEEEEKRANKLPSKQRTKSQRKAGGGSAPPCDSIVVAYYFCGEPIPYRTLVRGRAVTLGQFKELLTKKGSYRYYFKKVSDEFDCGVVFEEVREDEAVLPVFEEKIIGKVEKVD

effect of a mutation on the interaction | Variant
disrupting interaction | MSEVTRSLLQRWGASLRRGADFDSWGQLVEAIDEYQILARHLQKEAQAQHNNSEFTEEQKKTIGKIATCLELRSAALQSTQSQEEFKLEDLKKLEPILKNILTYNKEFPFDVQPIPLRRILAPGEEENLEFEEDEEGGAGAGPPDSFSARVPGTLLPRLPSEPGMTLLTIRIEKIGLKDAGQCIDPYITVSVKDLNGIDLTPVQDTPVASRKEDTYVHFNVDIELQKHVERLTKGAAIFFEFKHYKPKKRFTSTKCFAFMEMDEIKPGPIVIELYKKPTDFAAAALQLLTKKPLYLHLHQSLHKE [K282A;R283A;K284A;K285A]
